Numbering of substitutions follows the chain as printed. In names and notes the source's numbering stands. Each block holds one molecule with its values, some of them ahead of it.
Columns and labels:
[1] = molecular target: BAF155^SWIRM (SWIRM domain of human BAF155, residues 449–546) (human) (UniProt Q92922); experiment: ITC; VP-ITC, 25 °C, 25 mM sodium phosphate, 100 mM NaCl, 1 mM TCEP, pH 7.0; typically 160 µM hSNF5 injected into 10 µM BAF155^SWIRM or mutant in the cell; single-site model
[2] = molecular target: T1, BAF155^SWIRM (SWIRM domain of human BAF155, residues 449–546) (human, UniProt Q92922 449-546); experiment: SEC-MALS; Wyatt WTC-030S5 column, 0.5 mL/min, 10 mM HEPES pH 7.0, 100 mM NaCl, 2 mM DTT; hSNF5^171–258 0.2 mM and BAF155^SWIRM 0.3 mM, individually or together; conditions: both partners purified
T1 construct: human BAF155, SWIRM domain, residues 449-546; 15N- or 13C,15N-labelled for the NMR experiments; also called BAF155/SRG3; source: E. coli BL21 (DE3), purified (Ni-NTA, TEV cleavage, Superdex 200); not shown: His6, N-terminal, cleaved
T1 sequence (Q92922 449-546): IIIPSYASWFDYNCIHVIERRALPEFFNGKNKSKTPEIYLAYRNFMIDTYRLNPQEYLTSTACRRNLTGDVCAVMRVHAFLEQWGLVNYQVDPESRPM

[3] = molecular target: T1, BAF155^SWIRM (SWIRM domain of human …); experiment: ITC; VP-ITC, 25 °C, 25 mM sodium phosphate, 100 mM NaCl, 1 mM TCEP, pH 7.0; typically 160 µM hSNF5 injected into 10 µM BAF155^SWIRM or mutant in the cell; single-site model; conditions: both partners purified
[4] = molecular target: T1, BAF155^SWIRM (SWIRM domain of human …); experiment: as above; conditions: both partners purified; remark: listed apart in the source
[5] = molecular target: T2, BAF155^SWIRM N476A/N479A mutant (human, UniProt Q92922 449-546, N476A | N479A); experiment: as above; conditions: both partners purified
T2 construct: human BAF155, SWIRM domain, residues 449-546, N476A and N479A; PDB 6KZ7 holds the wild-type parent of the same limits; source: E. coli BL21 (DE3), purified (Ni-NTA, TEV cleavage, Superdex 200); not shown: His6, N-terminal, cleaved
T2 sequence (Q92922 449-546 N476A/N479A): as the sequence (Q92922 449-546) above, with N28A, N31A counted along it

Sequence of BAF155^SWIRM (SWIRM domain of human BAF155, residues 449–546) (human) (Q92922 449-546): as the sequence (Q92922 449-546) above

Molecule: hSNF5^SFH1/171–253 (chimeric mutant with the N-terminal tail region from the yeast protein SFH1) (from UniProt Q12824 185-253) (domain or fragment)
- Kd [1]: 480 nM
- dH [1]: -13.4 kcal/mol

B1: hSNF5^171–258 (N- and C-terminal elongated hSNF5 RPT1 domain) (domain or fragment, human, UniProt Q12824 171-258, looked up)
chain: HDPAVIHENASQPEVLVPIRLDMEIDGQKLRDAFTWNMNEKLMTPEMFSEILCDDLDLNPLTFVPAIASAIRQQIESYPTDSILEDQS
notes: 15N- or 13C,15N-labelled for the NMR experiments; modified pET21b vector; also called human SNF5; SNF5/INI1/BAF47; source: E. coli BL21 (DE3), purified (Ni-NTA, TEV cleavage, Superdex 200); not shown: His6, N-terminal, cleaved
- stoichiometry N [2]: 1

B3: hSNF5^171–253 (domain or fragment, human, UniProt Q12824 171-253, looked up)
chain: HDPAVIHENASQPEVLVPIRLDMEIDGQKLRDAFTWNMNEKLMTPEMFSEILCDDLDLNPLTFVPAIASAIRQQIESYPTDSI
notes: source: E. coli BL21 (DE3), purified (Ni-NTA, TEV cleavage, Superdex 200); not shown: His6, N-terminal, cleaved
- stoichiometry N [4]: 1
- Kd [3]: 110 ± 20 nM
- dH [3]: -19.7 ± 0.3 kcal/mol
- Kd [5]: 140 ± 30 nM
- dH [5]: -17.7 ± 0.7 kcal/mol

B4: hSNF5^171–253 with the E184A mutation (domain or fragment, human, UniProt Q12824 171-253, looked up)
chain: B3 chain with E14A
notes: as for B3
- Kd [3]: 370 ± 100 nM
- dH [3]: -11.2 ± 0.4 kcal/mol

More lines, in order of falling Kd [3], values ahead:

- Kd [3]: 760 ± 80 nM
- dH [3]: -16 ± 0.3 kcal/mol
B5: hSNF5^186–253 (domain or fragment, human, UniProt Q12824 186-253, looked up)
chain: LVPIRLDMEIDGQKLRDAFTWNMNEKLMTPEMFSEILCDDLDLNPLTFVPAIASAIRQQIESYPTDSI
notes: human SNF5 (hSNF5), residues 186-253; source: E. coli BL21 (DE3), purified (Ni-NTA, TEV cleavage, Superdex 200); not shown: His6, N-terminal, cleaved

- Kd [3]: 300 ± 50 nM
- dH [3]: -21 ± 0.6 kcal/mol
B7: hSNF5^179–253 (domain or fragment, human, UniProt Q12824 179-253, looked up)
chain: NASQPEVLVPIRLDMEIDGQKLRDAFTWNMNEKLMTPEMFSEILCDDLDLNPLTFVPAIASAIRQQIESYPTDSI
notes: human SNF5 (hSNF5), residues 179-253; source: E. coli BL21 (DE3), purified (Ni-NTA, TEV cleavage, Superdex 200); not shown: His6, N-terminal, cleaved

- Kd [3]: 300 ± 70 nM
- dH [3]: -12.9 ± 0.4 kcal/mol
B8: hSNF5^181–253 (domain or fragment, human, UniProt Q12824 181-253, looked up)
chain: SQPEVLVPIRLDMEIDGQKLRDAFTWNMNEKLMTPEMFSEILCDDLDLNPLTFVPAIASAIRQQIESYPTDSI
notes: human SNF5 (hSNF5), residues 181-253; source: E. coli BL21 (DE3), purified (Ni-NTA, TEV cleavage, Superdex 200); not shown: His6, N-terminal, cleaved

- Kd [3]: 290 ± 80 nM
- dH [3]: -18.7 ± 0.8 kcal/mol
B2: hSNF5^183–253 (domain or fragment, human, UniProt Q12824 183-253, looked up)
chain: PEVLVPIRLDMEIDGQKLRDAFTWNMNEKLMTPEMFSEILCDDLDLNPLTFVPAIASAIRQQIESYPTDSI
notes: human SNF5 (hSNF5), residues 183-253; also called whole αN helix-deletion mutant; source: E. coli BL21 (DE3), purified (Ni-NTA, TEV cleavage, Superdex 200); not shown: His6, N-terminal, cleaved

- Kd [3]: 110 ± 30 nM
- dH [3]: -15.8 ± 0.5 kcal/mol
B6: hSNF5^174–253 (domain or fragment, human, UniProt Q12824 174-253, looked up)
chain: AVIHENASQPEVLVPIRLDMEIDGQKLRDAFTWNMNEKLMTPEMFSEILCDDLDLNPLTFVPAIASAIRQQIESYPTDSI
notes: human SNF5 (hSNF5), residues 174-253; source: E. coli BL21 (DE3), purified (Ni-NTA, TEV cleavage, Superdex 200); not shown: His6, N-terminal, cleaved

— paper PMC7177284, “A Coil-to-Helix Transition Serves as a Binding Motif for hSNF5 and BAF155 Interaction” (International Journal of Molecular Sciences, 2020)
